Target: bovine transducin (UniProt P04695)
Sequence (P04695 2-350): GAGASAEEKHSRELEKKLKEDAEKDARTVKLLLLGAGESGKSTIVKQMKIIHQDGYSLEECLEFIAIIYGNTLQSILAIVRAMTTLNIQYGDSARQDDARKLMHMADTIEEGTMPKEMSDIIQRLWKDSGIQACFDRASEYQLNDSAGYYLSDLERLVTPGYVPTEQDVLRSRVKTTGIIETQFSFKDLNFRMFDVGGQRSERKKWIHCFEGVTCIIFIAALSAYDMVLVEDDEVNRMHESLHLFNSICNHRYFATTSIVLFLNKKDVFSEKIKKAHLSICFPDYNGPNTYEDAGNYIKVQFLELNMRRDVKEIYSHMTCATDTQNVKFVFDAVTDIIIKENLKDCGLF

For “recombinant S1 protein of native sequence from pPTXS1/1”, the “ADP-ribosyltransferase activity (autoradiogram of SDS-PAGE, [32P]NAD)” value was “The radioactive band at 39 Kd is the transducin subunit which has been ribosylated”.

— patent US7144576
